Laboratory results from article PMC7957560, “The Functional Role of Loops and Flanking Sequences of G-Quadruplex Aptamer to the Hemagglutinin of Influenza a Virus”.

Assays:
[1] = molecular target: T1, recombinant hemagglutinin HA1 subunit (rHA, H5) (Influenza A virus A/Vietnam/1203/2004 …, UniProt Q5EP31 17-346); experiment: BLI; rHA immobilized; apparent KD; BLI at 30 C in sodium-potassium phosphate buffer pH 7.4 ([…]; conditions: protein: commercial, label: none (rHA), 5'-biotin (vHA BLI)
[2] = molecular target: T1, recombinant hemagglutinin HA1 subunit …; experiment: BLI; 50 nM control, reference signal; BLI at 30 C in sodium-potassium phosphate buffer pH 7.4 ([…]; conditions: protein: commercial; label: none (rHA); 5'-biotin (vHA BLI)

Binder | Kd [1] [nM] | further results
TTGGGGTTAGGGAGGGCGGGGGTT (structured_DNA) [G7-TTA_A_C] |  | Kd ([1]; parallel G4, 86% monomer): 0.4 ± 0.2 nM
CGACGCACCATTTGTTTAATATGTTTTTTAATTCCCCTTGTGGTGCGTCG (ssDNA) [control oligonucleotide] |  | binding result [2]: no binding
TTGGGGTTATTTTGGGAGGGCGGG (structured_DNA) [G7n3t] |  | Kd ([1]; parallel G4, 100% monomer): 0.4 ± 0.2 nM
TTGGGGTTATTAAGGGAGGGCGGGGGTT (structured_DNA) [G7-TTATTAA_A_C] |  | Kd ([1]; parallel G4, 77% monomer): 0.4 ± 0.2 nM
TTGGGGTTATTTTGGGAGGGCGGGGGTT (structured_DNA) [RHA0385] | 0.6 ± 0.3 | 
GGGTTATTTTGGGAGGGCGGG (structured_DNA) [G7nt] |  | Kd ([1]; parallel G4, 74% monomer): 0.7 ± 0.3 nM
GGGTTATTTTGGGAGGGCGGGGGTT (structured_DNA) [G7n5t] |  | Kd ([1]; parallel G4, 74% monomer): 0.3 ± 0.2 nM
GGGAGGGAGGGAGGG (structured_DNA) [G7nt-A_A_A] | 0.6 ± 0.4 | 
GGGAGGGTGGGTGGG (structured_DNA) [G7nt-A_T_T] | 0.4 ± 0.2 | 
GGGTGGGAGGGTGGG (structured_DNA) [G7nt-T_A_T] | 0.6 ± 0.2 | 
GGGTGGGTGGGTGGG (structured_DNA) [G7nt-T_T_T] | 0.7 ± 0.2 | 
GGGTGGGTGGGAGGG (structured_DNA) [G7nt-T_T_A] | 0.8 ± 0.2 | 
